Test results as given in US20240409645A1.
Changes are numbered by the printed parent chain.

T1: mouse IL-2Rβ (mouse) (UniProt P16297)
T1 sequence (looked up): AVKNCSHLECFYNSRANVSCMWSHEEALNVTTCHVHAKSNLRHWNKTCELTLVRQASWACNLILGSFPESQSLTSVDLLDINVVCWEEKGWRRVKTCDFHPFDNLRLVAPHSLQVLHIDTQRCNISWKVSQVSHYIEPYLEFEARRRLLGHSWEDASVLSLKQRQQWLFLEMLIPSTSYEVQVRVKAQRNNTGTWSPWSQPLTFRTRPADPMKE

B1: FJ1427_P035MP03A09 (VHH)
VHH: QVQLVESGGGLVQAGGSLRLACAASGRTFSTLTMGWFRQAPGKEREFVAGISPSGGYAWHADSVKGRFTIDRDNAKNTVYLQTRSLRPEDTAVYYCAADHPPYGAVASRSEYEYDDWGPGTRVTVSS
B2: FJ1427_P035MP03H09 (VHH)
VHH: QVQLVESGGGLVQAGGSLRLSCAASGSIFSINAMGWFRQAPGKEREFVAAISRSGGSTAYVDSVKGRFTISRDNSKNMVHLQMNSLKSEDEAVYYCAATAAVGWTSRWITTDFDSWGQGTQVTVSS
B3: FJ1427 P035MP03F07 (VHH)
VHH: QVQLVESGGGLVQAGGSLRLSCAASGRTFSSYVMGWFRQAPGKEREFVVAITGTRRTTDWPDSVKGRFTISRDNAQNTVYLDMNSLKPEDTAVYYCASARGLPVPPLGDIIHWGEGTLVTVSS
B4: FJ1427 P035MP03E07 (VHH)
VHH: QVQLVESGGGLVQAGGSLRLSCAVSGDVFVRYTMAWFRQAPGKEREFVATVTDSGRTTEYVDSVKGRFTVSRDNAKNTVYLQMNNLKPEDTAVYYCAANTDYFRIRSLDANTWGQGTQVTVSS
B5: FJ1427_P035MP03G09 (VHH)
VHH: B4 VHH with A23V, T50V, R104Q, L108V, A110N, T112A
B6: FJ1427_P035MP03H07 (VHH)
VHH: B4 VHH with Q1E, A23V, T50A, R104Q, L108V, A110N, T112A
B7: FJ1427_P035MP03B09 (VHH)
VHH: B4 VHH with A23V, A49T, T50S, V51I
B8: FJ1427 P035MP03E05 (VHH)
VHH: EVQLVESGGGLVQAGGSLRLSCAVSGVIFWSDVVGWYRQASGKQRELVATINLDDTKHYGEVVKGRFAISRDSHKNAYYLQLNSLKPEDTAVYYCNVRRGSEFYWGQGTQVTVSS
B9: FJ1427_P035MP03G07 (VHH)
VHH: QVQLVESGGGLVQAGGSLRLSCAASGRTFSSDAKGWFRQAPGKEREFVAAITWAGRGTDYADSVKGRFTITRDNAKNMVYLQMSNLKPEDTAVYYCALNPEGVIGPYFRNSNRYNYWGQGTQVTVSS
B10: FJ1427_P035MP03C07 (VHH)
VHH: QVQLVESGGGLVQAGDSLRLSCAASGRSLSTDCMGWVRQAPGKEREFVAGITWGTGSTLYADSVEGRFTISKDNAKNTGYLQMSSLKPEDTAVYYCAVDRYCYRGTVYRDWGRGTQVTVSS
B11: FJ1427_P035MP03H04 (VHH)
VHH: QVQLVESGGGLVQAGGSLALSCAASGGTFSSYAMGWFRQAPGKEREFVAATTRGGGRTMYAVSTEGRFSCSRDNAKNTVYLLIKNLKPEDTAVYYCAARTSYYDGTYYPASSDFDIWGQGTQVTVSS
B12: FJ1427 P035MP03H05 (VHH)
VHH: B11 VHH with V2L
B13: FJ1427_P035MP03F04 (VHH)
VHH: EVQLVESGGGLVQTGGSLRLSCAASGSQFINDVMGWYRQVPGKQRELVADMDDTGSTKYADSVKGRFTILRDSVKNTAYLQMSNLKPEDTGVYYCKAGLWIKGRHSDYWGQGTQVTVSS
B14: FJ1427_P035MP03F06 (VHH)
VHH: B13 VHH with E1Q, V5Q
B15: FJ1427_P035MP03E06 (VHH)
VHH: QVQLVESGGGLVQAGRSLGLSCAASGFTFDNYAMSWVRQAPGKGLEWVSSITGAGRGTHYADSVKGRFTISRDNAKNTLYLQMNSLKPEDTAVYYCAKYSSSTYYPPTPARGTDYRGPGTQVTVSS
B16: FJ1427_P035MP03A07 (VHH)
VHH: QVQLVESGGGLVEAGGSLRLSCAASGRAFNNFPMGWFRQAPGKEREFVAAITWISGSTLYADSVKGRFTISRDKSKNTVYLQMSGLKPEDTALYYCAAALKTITRGQHDYTYWGQGTQVTVSS
B17: FJ1427_P035MP03E04 (VHH)
VHH: QVQLVESGGGLVQTGGSLRLSCAVSGSHFISDVMGWYRQVPEKQRELVADMADGNSAKYADSVKGRFSILRDSVKNTVYLQMSSLKPEDTGIYYCKAGLWIAGRHSDYWGQGTQVTVSS
B18: FJ1427 P035MP03A06 (VHH)
VHH: B17 VHH with Q1E, H28R, E42G, Q44A, N55G, L70V, V74G, N76S, V78M, I92M
B19: FJ1427_P035MP03E08 (VHH)
VHH: QVQLVESGGGLVQAGGSLRLSCAAAGRAIENYPVGWFRRAPGKEREFVAAITWISGSTLYADSVKGRFTISRDNAKNTVYLQMSSLKPEDTALYYCAAALKTITRGQNDYSYWGQGTQVTVSS
B20: FJ1427 P035MP03F09 (VHH)
VHH: B19 VHH with Q1E, R19T, A25S, I29F, E30S, R39Q, I54L, K65E, Q82L, Y95F
B21: FJ1427_P035MP03G05 (VHH)
VHH: EVQLVESGGGLVQIGGSLRLSCAASGRTFSSITMAYFRQVPGKEREWVAGINFSGTRTFYADSVKGRFLISRDDAKSTMYLQMNSLKPEDTAVYYCAASPRGFYGPGNALYDYWGQGTQVTVSS
B22: FJ1427_P035MP03B05 (VHH)
VHH: EVQLVESGGGLVQAGGSLRLACALSGDVFVRYTMAWFRQAPGKEREFVASVTDSGRTTDYVASVQGRFTVSRDNNKNTVYLQMNSLKPEDTAVYYCAANTDYFQIRSLDRNTWGQGTQVTVSS
B23: FJ1427 P035MP03C08 (VHH)
VHH: B22 VHH
B24: FJ1427 P035MP03D07 (VHH)
VHH: B4 VHH with Q1E, V24A, T50S, E59D, V61G, R104Q

Target: T1, mouse IL-2Rβ (mouse)
Assay: P.E. binding ELISA on coated protein

First: B1
Second: B2
The P.E. binding ELISA OD of the first is lower: 0.049 OD450 nm for the first, 0.052 OD450 nm for the second.

Compared with B3, B4 is higher in P.E. binding ELISA OD: 0.048 OD450 nm for the first, 0.057 OD450 nm for the second.

Going from B5 to B6, the P.E. binding ELISA OD falls from 0.054 OD450 nm to 0.053 OD450 nm.

Going from B7 to B8, the P.E. binding ELISA OD rises from 0.046 OD450 nm to 0.049 OD450 nm.

First: B9
Second: B10
The P.E. binding ELISA OD of the first is higher: 0.048 OD450 nm for the first, 0.047 OD450 nm for the second.

Compared with B11, B12 is lower in P.E. binding ELISA OD: 0.05 OD450 nm for the first, 0.049 OD450 nm for the second.

Compared with B13, B14 is lower in P.E. binding ELISA OD: 0.049 OD450 nm for the first, 0.048 OD450 nm for the second.

Compared with B15, B16 is higher in P.E. binding ELISA OD: 0.048 OD450 nm for the first, 0.049 OD450 nm for the second.

First: B17
Second: B18
The P.E. binding ELISA OD of the first is higher: 0.048 OD450 nm for the first, 0.047 OD450 nm for the second.

B19 and B20 are the same in P.E. binding ELISA OD: 0.048 OD450 nm for the first, 0.048 OD450 nm for the second.

Compared with B21, B22 is higher in P.E. binding ELISA OD: 0.049 OD450 nm for the first, 0.05 OD450 nm for the second.

Compared with B23, B24 is lower in P.E. binding ELISA OD: 0.054 OD450 nm for the first, 0.049 OD450 nm for the second.
